Measurements published in US20180194862A1.

Target: human CD40 on cells (HEK293 stable transfectants, HEK-Blue CD40 cells, human B cells, monocytic cells, dendritic cells) (human) (UniProt P25942)
Test: cell-based or functional assay

Sequence of human CD40 on cells (HEK293 stable transfectants, HEK-Blue CD40 cells, human B cells, monocytic cells, dendritic cells) (human) (P25942 21-277 limits assumed): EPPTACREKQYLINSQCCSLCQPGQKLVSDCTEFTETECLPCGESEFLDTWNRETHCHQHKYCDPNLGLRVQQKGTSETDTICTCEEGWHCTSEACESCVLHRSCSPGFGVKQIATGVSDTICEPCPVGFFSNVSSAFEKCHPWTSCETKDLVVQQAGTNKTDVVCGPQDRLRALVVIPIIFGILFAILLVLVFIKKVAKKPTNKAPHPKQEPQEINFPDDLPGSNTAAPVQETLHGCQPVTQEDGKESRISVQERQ

Work on “anti-human CD40 G28-5 (mouse IgG1) (Biolegend) (antibody)” yielded a Monocyte activation (THP1-Xblue, OD655) of 0.12 OD655 and a moDC activation (IL-12p70) of 139 pg/mL.
